Reference: patent US20150284465A1 (Chugai, published 2015)
Positions count from the first letter of the chain named.

T1: soluble human IL-31 receptor (human, UniProt Q8NI17 20-514)
T1 construct: also called soluble NR10; NR10
T1 sequence: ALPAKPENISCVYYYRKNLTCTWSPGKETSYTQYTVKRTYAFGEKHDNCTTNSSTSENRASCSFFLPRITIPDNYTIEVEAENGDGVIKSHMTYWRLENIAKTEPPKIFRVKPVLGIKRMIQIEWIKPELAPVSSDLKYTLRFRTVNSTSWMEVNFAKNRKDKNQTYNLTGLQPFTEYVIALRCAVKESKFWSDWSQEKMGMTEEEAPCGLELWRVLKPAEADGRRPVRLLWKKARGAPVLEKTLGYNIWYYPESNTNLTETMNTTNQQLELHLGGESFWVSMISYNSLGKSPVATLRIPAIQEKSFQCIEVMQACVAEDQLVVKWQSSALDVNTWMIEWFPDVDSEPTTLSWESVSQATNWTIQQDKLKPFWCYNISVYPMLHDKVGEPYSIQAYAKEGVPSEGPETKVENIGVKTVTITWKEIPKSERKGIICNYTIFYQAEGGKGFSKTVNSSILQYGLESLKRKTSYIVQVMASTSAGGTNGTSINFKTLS

T2: recombinant human IL-6R sR (R&D systems) (human, UniProt P08887 20-358)
T2 construct: Bought soluble receptor; also called rhIL-6sR; rhIL-s6R
T2 sequence (looked up): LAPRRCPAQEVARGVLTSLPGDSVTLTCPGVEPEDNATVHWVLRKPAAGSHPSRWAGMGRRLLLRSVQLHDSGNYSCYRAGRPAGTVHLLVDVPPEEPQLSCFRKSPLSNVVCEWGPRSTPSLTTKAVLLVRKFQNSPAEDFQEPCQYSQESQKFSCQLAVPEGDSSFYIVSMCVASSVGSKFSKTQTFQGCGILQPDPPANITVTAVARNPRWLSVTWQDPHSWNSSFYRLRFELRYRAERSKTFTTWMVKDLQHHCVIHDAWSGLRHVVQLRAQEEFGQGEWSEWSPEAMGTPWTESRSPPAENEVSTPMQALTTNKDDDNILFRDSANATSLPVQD

T3: SR344 (N-terminal 1st to 344th amino acids of soluble human IL-6R) (human, UniProt P08887 20-344, limits assumed)
T3 construct: also called recombinant soluble IL-6 receptor; soluble human IL-6 receptor
T3 sequence (looked up): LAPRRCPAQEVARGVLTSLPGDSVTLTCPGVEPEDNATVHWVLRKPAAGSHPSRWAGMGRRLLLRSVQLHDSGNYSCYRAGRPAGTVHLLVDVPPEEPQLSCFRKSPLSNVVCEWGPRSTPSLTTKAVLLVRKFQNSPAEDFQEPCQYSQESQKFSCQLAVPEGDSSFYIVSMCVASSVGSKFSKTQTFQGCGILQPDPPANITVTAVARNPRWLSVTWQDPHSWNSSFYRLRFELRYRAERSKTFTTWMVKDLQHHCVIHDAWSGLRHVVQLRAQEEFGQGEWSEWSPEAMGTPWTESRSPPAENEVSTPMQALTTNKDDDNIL

B1: 31R_H2L2 (antibody, V domains shown)
VH: QVQLVQSGAEVKKPGASVKVSCKASGYTFTGYIMNWVRQAPGQGLEWMGLINPYNGGTSYNQQFQDRVTITADESTSTAYMELSSLRSEDTAVYYCARDGYDDGPYTMDYWGQGTLVTVSS
VL: DIQMTQSPSSLSASVGDRVTITCQTSEDIYSFLAWYQQKPGKAPKLLIYNAQTEAQGVPSRFSGSGSGTDFTLTISSLQPEDFATYYCQHHYESPLTFGGGTKVEIKR
B2: 31R_H3L2 (antibody, V domains shown)
VH: B1 VH with Q62D
VL: B1 VL
B3: 31R_H1L1 (antibody)
heavy: QVQLVQSGAEVKKPGASVKVSCKASGYTFTGYIMNWVRQAPGQGLEWMGLINPYNGGTSYNQKFKGRVTITADESTSTAYMELSSLRSEDTAVYYCARDGYDDGPYTMDYWGQGTLVTVSSASTKGPSVFPLAPSSKSTSESTAALGCLVKDYFPEPVTVSWNSGALTSGVHTFPAVLQSSGLYSLSSVVTVPSSNFGTQTYTCNVDHKPSNTKVDKTVERKSCVECPPCPAPPVAGPSVFLFPPKPKDTLMISRTPEVTCVVVDVSHEDPEVQFNWYVDGVEVHNAKTKPREEQFNSTFRVVSVLTVVHQDWLNGKEYKCKVSNKGLPAPIEKTISKTKGQPREPQVYTLPPSREEMTKNQVSLTCLVKGFYPSDIAVEWESNGQPENNYKTTPPMLDSDGSFFLYSKLTVDKSRWQQGNVFSCSVMHEALHNHYTQKSLSLSPGK
light: DIQMTQSPSSLSASVGDRVTITCRTSENIYSFLAWYQQKPGKAPKLLIYNAKTLAKGVPSRFSGSGSGTDFTLTISSLQPEDFATYYCQHHYESPLTFGGGTKVEIKRTVAAPSVFIFPPSDEQLKSGTASVVCLLNNFYPREAKVQWKVDNALQSGNSQESVTEQDSKDSTYSLSSTLTLSKADYEKHKVYACEVTHQGLSSPVTKSFNRGEC
notes: Anti-human IL-31 receptor antibody
B4: RDC-5 (antibody, V domains shown)
VH: QVQLQESGPGLVRPSQTLSLTCTVSGYSITSDHAWSWVRQPPGRGLEWIGYISYSGITTYNPSLKSRVTMLRDTSKNQFSLRLSSVTAADTAVYYCARVLARITAMDYWGQGSLVTVSS
VL: DIQMTQSPSSLSASVGDRVTITCRASQDISSYLNWYQQKPGKAPKLLIYYTSRLHSGVPSRFSGSGSGTDFTFTISSLQPEDIATYYCQQGNTLPYTFGQGTKVEIK
notes: also called RDC-5H/L(WT)
B5: RDC-8 (antibody, V domains shown)
VH: B4 VH with V99L
VL: B4 VL
notes: also called RDC-8H/L(WT)
B6: RDC-2 (antibody, V domains shown)
VH: B4 VH with I103A
VL: B4 VL
notes: also called RDC-2H/L(WT)
B7: RDC-7 (antibody, V domains shown)
VH: B4 VH with V99T
VL: B4 VL
notes: also called RDC-7H/L(WT)
B8: RD-28 (antibody, V domains shown)
VH: B4 VH with V99S, I103T
VL: B4 VL with Q89G
B9: RDC-11 (antibody, V domains shown)
VH: B4 VH with V99S, I103T
VL: B4 VL with Q89G, T93R
notes: also called H(WT)/RDC-11L
B10: RDC-4 (antibody, V domains shown)
VH: B4 VH with V99T, I103A
VL: B4 VL
notes: also called RDC-4H/L(WT)
B11: RDC-6 (antibody, V domains shown)
VH: B4 VH with V99I
VL: B4 VL
notes: also called RDC-6H/L(WT)
B12: RDC-3 (antibody, V domains shown)
VH: B4 VH with V99I, I103A
VL: B4 VL
notes: also called RDC-3H/L(WT)
B13: H96/PF1L-IgG1 (antibody, V domains shown)
VH: QVQLQESGPGLVKPSETLSLTCAVSGYSISDDHAWSWVRQPPGEGLEWIGYISYSGITNYNPSLKGRVTISRDNSKNTLYLQMNSLRAEDTAVYYCARVLARITAMDYWGEGTLVTVSS
VL: DIQMTQSPSSLSASVGDSVTITCQASQDISSYLNWYQQKPGKAPELLIYYGSELHSGVPSRFSGSGSGTDFTFTISSLEAEDAATYYCGQGNRLPYTFGQGTKVEIE

molecular target: T1, soluble human IL-31 receptor; experiment: SPR (Biacore T100), antibody captured on Protein A, soluble human IL-31 receptor as analyte
Method: The antigen-antibody reaction kinetics between anti-human IL-31 receptor antibody and soluble human IL-31 receptor was analyzed using Biacore T100 (GE Healthcare Biosciences). The antigen-antibody interaction was measured by immobilizing rec-Protein A (Zymed) (hereinafter “Protein A”) onto a sensor chip, capturing an antibody with the immobilized Protein A, and then reacting the antibody with the antigen as an analyte using a method known to those skilled in the art. […] In the first step of the measurement, the antibody in solution was bound to Protein A/G, and the analyte solution was allowed to interact with the antibody. After three minutes of interaction, the solution was switched to HBS-EP+, and the dissociation phase was monitored for five minutes. After measurement of the dissociation phase, the sensor chip was regenerated by washing with 10 μl of 10 mM glycine-HCl (pH 1.5). The association, dissociation, and regeneration constitute one analysis cycle. Each antibody was measured according to this cycle. The obtained sensorgrams were kinetically analyzed using the Biacore-specific data analysis software, Biacore T100 Evaluation Software (GE Healthcare Biosciences).

In order of falling Kd:
1. B1  3.9 nM
2. B2  3.6 nM
3. B3  3.3 nM

In order of falling koff:
1. B1  0.0016 s⁻¹
2. B2  0.0016 s⁻¹
3. B3  0.0012 s⁻¹

In order of rising kon:
1. B3  370000 M⁻¹ s⁻¹
2. B1  420000 M⁻¹ s⁻¹
3. B2  440000 M⁻¹ s⁻¹

molecular target: T2, recombinant human IL-6R sR (R&D systems); experiment: SPR (Biacore T100), antibody captured on Protein A, rhIL-6sR as analyte, 25 C
Method: The antigen-antibody interaction was measured by immobilizing 4,400 to 5,000 RU of rec-Protein A (Zymed) immobilized onto a sensor chip by the amine coupling method, binding various antibodies onto the chip, and then flowing the antigen over the chip as an analyte. For the antigen, various concentrations of rhIL-6sR were used. All measurements were carried out at 25° C. The kinetic parameters, association rate constant kₐ (1/Ms) and dissociation rate constant kd (1/s) were calculated from the sensorgrams obtained by measurement. Then, KD (M) was determined based on the rate constants. The respective parameters were determined using Biacore T100 Evaluation Software (Biacore).

In order of rising Kd:
1. B4  0.022 nM
2. B6  0.022 nM
3. B5  0.025 nM
4. B10  0.027 nM
5. B11  0.029 nM
6. B12  0.037 nM
7. B7  0.038 nM
8. B9  0.065 nM
9. B8  0.12 nM

In order of rising koff:
1. B6  2.5e-05 s⁻¹
2. B4  2.8e-05 s⁻¹
3. B10  2.9e-05 s⁻¹
4. B11  3.5e-05 s⁻¹
5. B5  3.6e-05 s⁻¹
6. B12  3.7e-05 s⁻¹
7. B7  4.2e-05 s⁻¹
8. B9  7e-05 s⁻¹
9. B8  0.00011 s⁻¹

In order of falling kon:
1. B5  1.4e+06 M⁻¹ s⁻¹
2. B4  1.2e+06 M⁻¹ s⁻¹
3. B11  1.2e+06 M⁻¹ s⁻¹
4. B6  1.1e+06 M⁻¹ s⁻¹
5. B7  1.1e+06 M⁻¹ s⁻¹
6. B9  1.1e+06 M⁻¹ s⁻¹
7. B10  1.1e+06 M⁻¹ s⁻¹
8. B12  1e+06 M⁻¹ s⁻¹
9. B8  940000 M⁻¹ s⁻¹

molecular target: T3, SR344 (N-terminal 1st to 344th amino …); experiment: SPR (Biacore T100), Protein A/G capture, SR344 at 0, 0.36 and 1.4 µg/ml, 15 min dissociation, 37 C
Method: This measurement was carried out under the same conditions described in Example 2. The running buffer used was HBS-EP+, and the flow rate was 20 μl/min. Each antibody was prepared so that about 100 RU of the antibody was bound to Protein A/G. SR344 was prepared at 0, 0.065, 0.131, and 0.261 μg/ml using HBS-EP+ and used as an analyte. In the first step of the measurement, the antibody in solution was bound to Protein A/G, and the analyte solution was allowed to interact therewith. After three minutes of interaction, the solution was switched to HBS-EP+, and the dissociation phase was monitored for 10 or 15 minutes. After measurement of the dissociation phase, the sensor chip was regenerated by washing with 10 μl of 10 mM glycine-HCl (pH 1.5). The association, dissociation, and regeneration constitute one analysis cycle. Each antibody was measured according to this cycle.
The Tm of purified H96/PF1L-IgG1 was determined by the method described in Example 5. The affinity measurement was carried out under essentially the same conditions used in Example 5. Note that the concentration of SR344 was adjusted to 0, 0.36, and 1.4 μg/ml, and the dissociation phase was monitored for 15 minutes.

With B13 the Kd was 0.039 nM.

B13 gave a koff of 4.8e-05 s⁻¹.

B13 was tested, and the kon was 1.2e+06 M⁻¹ s⁻¹.
